# Source: article PMC9706017, “Crystal Structure and Molecular Mechanism of Phosphotransbutyrylase from Clostridium acetobutylicum” (Journal of Microbiology and Biotechnology, 2021)
# B1: phosphotransbutyrylase from Clostridium acetobutylicum (enzyme, UniProt P58255 1-301, looked up)
# chain: MIKSFNEIIMKVKSKEMKKVAVAVAQDEPVLEAVRDAKKNGIADAILVGDHDEIVSIALKIGMDVNDFEIVNEPNVKKAALKAVELVSTGKADMVMKGLVNTATFLRSVLNKEVGLRTGKTMSHVAVFETEKFDRLLFLTDVAFNTYPELKEKIDIVNNSVKVAHAIGIENPKVAPICAVEVINPKMPSTLDAAMLSKMSDRGQIKGCVVDGPLALDIALSEEAAHHKGVTGEVAGKADIFLMPNIETGNVMYKTLTYTTDSKNGGILVGTSAPVVLTSRADSHETKMNSIALAALVAGNK
# notes: phosphotransbutyrylase (phosphate butyryltransferase, PTB) of Clostridium acetobutylicum; Octamer (four dimers) in the crystal and by size-exclusion chromatography; Removal of the tag is not mentioned; also called CaPTB; PTB; source: E. coli BL21(DE3)-T1R, purified (Ni-NTA agarose, Superdex200 size exclusion)
# Molecular target: the molecule itself
# Assay: crystal structure; apo CaPTB with sulfate ions; crystals from 20% PEG3350, 0.2 M lithium sulfate, 0.1 M HEPES pH 7.5, 20°C; space group P21; 2.9 Å; eight molecules in the asymmetric unit
protein,measurement,value
B1,stoichiometry N,8
